Results reported in patent US20120117670A1 (U3 PHARMA, published 2012).
Numbering of substitutions follows the chain as printed. Names may count otherwise.

T1: Human AXL-Fc (R&D Systems, #154-AL) (human, UniProt P30530 26-451)
T1 construct: Bought reagent; also called human AXL-Fc fusion protein; human AXL-Fc protein; not shown: Fc part of the bought fusion protein
T1 sequence: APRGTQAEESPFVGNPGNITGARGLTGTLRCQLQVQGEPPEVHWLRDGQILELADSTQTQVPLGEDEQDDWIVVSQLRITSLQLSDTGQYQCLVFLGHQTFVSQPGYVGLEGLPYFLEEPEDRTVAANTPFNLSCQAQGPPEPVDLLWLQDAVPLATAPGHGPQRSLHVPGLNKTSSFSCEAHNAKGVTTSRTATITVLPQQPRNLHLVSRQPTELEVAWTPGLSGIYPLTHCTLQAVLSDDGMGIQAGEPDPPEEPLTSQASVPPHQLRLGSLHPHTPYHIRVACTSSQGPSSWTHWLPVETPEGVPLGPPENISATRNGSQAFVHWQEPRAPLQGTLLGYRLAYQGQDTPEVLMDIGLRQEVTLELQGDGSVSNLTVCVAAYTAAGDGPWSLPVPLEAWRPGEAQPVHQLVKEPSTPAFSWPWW

B1: h#11B7-T9 (antibody, human IgG1, kappa, V domains shown)
VH: QVQLQESGPGLVKPSETLSLTCTVSGYSITSNYWGWIRQPPGKGLEWIGYITYSGSTSYNPSLKSRVSISRDTSKNQFSLKLSSVTAADTAVYYCAITTFYYWGQGTLVTVSS
VL: DIQMTQSPSSLSASVGDRVTITCRASQDIGNYLRWFQQKPGKAPKLMISGATNLAAGVPSRFSGSGSGSDFTLTISSLQPEDFATYYCLQSKESPWTFGQGTKVEIKR
notes: Humanized IgG1/kappa
B2: h#11B7-T10 (antibody, human IgG1, kappa, V domains shown)
VH: B1 VH
VL: B1 VL with F36Y, M47L, F71Y
notes: Humanized IgG1/kappa
B3: h#11B7-T8 (antibody, human IgG1, kappa, V domains shown)
VH: B1 VH
VL: B1 VL with M47L, F71Y
notes: Humanized IgG1/kappa
B4: h#11B7-T13 (antibody, human IgG1, kappa, V domains shown)
VH: B1 VH
VL: B1 VL with F36Y, M47L
notes: Humanized IgG1/kappa
B5: h#11B7-T7 (antibody, human IgG1, kappa, V domains shown)
VH: B1 VH
VL: B1 VL with F36Y, F71Y
notes: Humanized IgG1/kappa
B6: h#11B7-T12 (antibody, human IgG1, kappa, V domains shown)
VH: B1 VH
VL: B1 VL with F36Y
notes: Humanized IgG1/kappa
B7: h#11B7-T11 (antibody, human IgG1, kappa, V domains shown)
VH: B1 VH
VL: B1 VL with M47L
notes: Humanized IgG1/kappa
B8: h#11B7-T19 (antibody, human IgG1, kappa, V domains shown)
VH: B1 VH with I48M, V67I, S68T
VL: B1 VL with F36Y
notes: Humanized IgG1/kappa
B9: h#11B7-T20 (antibody, human IgG1, kappa, V domains shown)
VH: B1 VH with I48M, V67I, S68T
VL: B1 VL with F36Y, M47L
notes: Humanized IgG1/kappa
B10: h#11B7-T18 (antibody, human IgG1, kappa)
heavy: not shown
light: DIQMTQSPSSLSASVGDRVTITCRASQDIGNYLRWFQQKPGKAPKLLISGATNLAAGVPSRFSGSGSGSDFTLTISSLQPEDFATYYCLQSKESPWTFGQGTKVEIKRTVAAPSVFIFPPSDEQLKSGTASVVCLLNNFYPREAKVQWKVDNALQSGNSQESVTEQDSKDSTYSLSSTLTLSKADYEKHKVYACEVTHQGLSSPVTKSFNRGEC
notes: Humanized IgG1/kappa
B11: h#11B7-T16 (antibody, human IgG1, kappa, V domains shown)
VH: B1 VH with I48M, V67I, S68T
VL: B1 VL
notes: Humanized IgG1/kappa
B12: h#11B7-T15 (antibody, human IgG1, kappa)
heavy: not shown
light: B10 light with F71Y
notes: Humanized IgG1/kappa
B13: h#11B7-T14 (antibody, human IgG1, kappa, V domains shown)
VH: B1 VH with I48M, V67I, S68T
VL: B1 VL with F36Y, F71Y
notes: Humanized IgG1/kappa
B14: h#11B7-T17 (antibody, human IgG1, kappa, V domains shown)
VH: B1 VH with I48M, V67I, S68T
VL: B1 VL with F36Y, M47L, F71Y
notes: Humanized IgG1/kappa
B15: h#11B7-T25 (antibody, human IgG1, kappa)
heavy: not shown
light: B10 light
notes: Humanized IgG1/kappa
B16: h#11B7-T26 (antibody, human IgG1, kappa, V domains shown)
VH: B1 VH with S68T
VL: B1 VL with F36Y
notes: Humanized IgG1/kappa
B17: h#11B7-T27 (antibody, human IgG1, kappa)
heavy: not shown
light: B10 light with F36Y
notes: Humanized IgG1/kappa
B18: h#11B7-T24 (antibody, human IgG1, kappa, V domains shown)
VH: B1 VH with S68T
VL: B1 VL with F36Y, M47L, F71Y
notes: Humanized IgG1/kappa
B19: h#11B7-T22 (antibody, human IgG1, kappa)
heavy: not shown
light: B10 light with F71Y
notes: Humanized IgG1/kappa
B20: h#11B7-T21 (antibody, human IgG1, kappa, V domains shown)
VH: B1 VH with S68T
VL: B1 VL with F36Y, F71Y
notes: Humanized IgG1/kappa
B21: h#11B7-T23 (antibody, human IgG1, kappa, V domains shown)
VH: B1 VH with S68T
VL: B1 VL
notes: Humanized IgG1/kappa
B22: h#11D5-T1 (antibody, human IgG1, kappa, V domains shown)
VH: QVQLQESGPGLVKPSQTLSLTCTVSGYSITSNYWGWIRQPPGMGLEWIGHITNSGNTTYNPSLKSRVTISVDTSENQFSLKLSSVTPADTAVYYCAKGAFDYWGQGTLVTVSS
VL: DVQMTQSPSSLSASVGDRVTITCRASQDIGNYLSWYQQKPGKAPKLLIYGAIKLAVGVPSRFSGSGSGTDFTLTISSLQPEDFATYYCLQYIQFPLTFGQGTKLEIKR
notes: Humanized antibody of rat #11D5 made from pEF6KCL/h#11D5-T1L and pEF1/FCCU/h#11D5-T1H; also called T1 (humanized #11D5)
B23: h#11D5-T5 (antibody, human IgG1, kappa)
heavy: not shown
light: DIQMTQSPSSLSASVGDRVTITCRASQDIGNYLSWFQQKPGKAPRRMIYGAIKLAVGVPSRFSGSGSGTDYTLTISSLQPEDFATYYCLQYIQFPLTFGGGTKVEIKRTVAAPSVFIFPPSDEQLKSGTASVVCLLNNFYPREAKVQWKVDNALQSGNSQESVTEQDSKDSTYSLSSTLTLSKADYEKHKVYACEVTHQGLSSPVTKSFNRGEC
notes: Humanized IgG1/kappa
B24: h#11D5-T2 (antibody, human IgG1, kappa, V domains shown)
VH: B22 VH with Q1E, V67I, T68S
VL: B22 VL with V2I, Y36F, K45R, L47M, F71Y
notes: Humanized IgG1/kappa
B25: h#11D5-T4 (antibody, human IgG1, kappa, V domains shown)
VH: B22 VH with E6Q, S7W, P9A, V12L, Q16E, M43K, V71R, E75K, P87A
VL: B22 VL with V2I, L46R, D70E, Q100G, L104V
notes: Humanized IgG1/kappa

Each binder was assayed against T1, Human AXL-Fc (R&D Systems, #154-AL) (assay: ELISA on plate-adsorbed human AXL-Fc (1 ug/ml), 5-fold antibody dilution series, AP-conjugated goat anti-human IgG, fluorescent substrate (Example 13)).

Row | EC50 (read off the curve) [µg/mL] | Binder
1 | ~0.02 | B1
2 | ~0.02 | B2
3 | ~0.02 | B3
4 | ~0.03 | B4
5 | ~0.03 | B5
6 | ~0.04 | B6
7 | ~0.02 | B7

Molecular target: T1, Human AXL-Fc (R&D Systems, #154-AL)
Test: as above
Remark: another data set of the same source

Row | EC50 (read off the curve) [µg/mL] | Binder
8 | ~0.02 | B8
9 | ~0.02 | B9
10 | ~0.02 | B10
11 | ~0.02 | B11
12 | ~0.02 | B12
13 | ~0.02 | B13
14 | ~0.02 | B14

Molecular target: T1, Human AXL-Fc (R&D Systems, #154-AL)
Test: as above
Remark: another data set of the same source

Row | EC50 (read off the curve) [µg/mL] | Binder
15 | ~0.01 | B15
16 | ~0.03 | B16
17 | ~0.02 | B17
18 | ~0.02 | B18
19 | ~0.02 | B19
20 | ~0.02 | B20
21 | ~0.01 | B21

The binders below were run against T1, Human AXL-Fc (R&D Systems, #154-AL) (assay: ELISA on plate-adsorbed human AXL-Fc (1 ug/ml), 5-fold antibody dilution series, AP-conjugated goat anti-human IgG, fluorescent substrate (Example 14)).

Row | EC50 (read off the curve) [µg/mL] | Binder
22 | ~0.02 | B22
23 | ~0.01 | B23
24 | ~0.01 | B24
25 | ~0.01 | B25
